# Assay results reported in the Immune Epitope Database (IEDB).
# What was measured:
# HLA-B*15:02 = assay: IEDB peptide-MHC binding, purified MHC/competitive/fluorescence; filed as Kd, often an IC50 or EC50 that approximates it; ≥ and ≤ were set here for values at or beyond the usual limits of such assays
# HLA-B*51:01 = assay: as above; settings: source organism: Zaire ebolavirus
# HLA-B*35:01 = assay: as above
# HLA-B*46:01 = assay: as above; settings: source organism: Zaire ebolavirus
# HLA-B*27:05 = assay: as above; settings: source organism: Zaire ebolavirus
# HLA-A*02:01 = assay: as above; settings: source organism: Zaire ebolavirus
# HLA-B*57:01 = assay: as above
# HLA-A*26:01 = assay: as above; settings: source organism: Zaire ebolavirus
# HLA-A*69:01 = assay: as above; settings: source organism: Zaire ebolavirus
# HLA-B*39:01 = assay: as above; settings: source organism: Zaire ebolavirus
# HLA-A*02:12 = assay: IEDB peptide-MHC binding, purified MHC/direct/fluorescence; filed as Kd, often an IC50 or EC50 that approximates it; ≥ and ≤ were set here for values at or beyond the usual limits of such assays; settings: source organism: Ebola virus Yambio0403
# HLA-A*02:16 = assay: as above; settings: source organism: Ebola virus Yambio0403
# HLA-A*02:19 = assay: as above; settings: source organism: Ebola virus Yambio0403
# HLA-A*02:03 [1] = assay: as above; settings: source organism: Ebola virus Yambio0403
# HLA-A*68:02 = assay: as above; settings: source organism: Ebola virus Yambio0403
# HLA-C*14:02 = assay: as above
# HLA-A*03:01 [2] = assay: as above; settings: source organism: Ebola virus Yambio0403
# HLA-B*08:01 = assay: as above
# HLA-A*24:02 = assay: IEDB peptide-MHC binding, purified MHC/competitive/fluorescence; filed as Kd, often an IC50 or EC50 that approximates it; ≥ and ≤ were set here for values at or beyond the usual limits of such assays; settings: source organism: Entamoeba histolytica HM-1:IMSS
# HLA-C*07:02 = assay: IEDB peptide-MHC binding, purified MHC/direct/fluorescence; filed as Kd, often an IC50 or EC50 that approximates it; ≥ and ≤ were set here for values at or beyond the usual limits of such assays
# HLA-C*12:03 = assay: as above
# HLA-C*03:03 = assay: as above
# HLA-B*14:02 = assay: IEDB peptide-MHC binding, purified MHC/competitive/fluorescence; ≥ and ≤ were set here for values at or beyond the usual limits of such assays; settings: source organism: Human immunodeficiency virus 1
# HLA-B*58:01 = assay: IEDB peptide-MHC binding, purified MHC/competitive/fluorescence; filed as Kd, often an IC50 or EC50 that approximates it; ≥ and ≤ were set here for values at or beyond the usual limits of such assays; settings: source organism: Escherichia coli O139:H28 str. E24377A
# HLA-A*03:01 [3] = assay: as above; settings: source organism: Escherichia coli O139:H28 str. E24377A
# HLA-B*15:01 = assay: as above
# HLA-A*01:01 = assay: as above
# HLA-A*02:03 [4] = assay: as above; settings: source organism: Human immunodeficiency virus 1
# HLA-A*11:01 = assay: as above; settings: source organism: Human immunodeficiency virus 1
# HLA-A*30:01 = assay: as above; settings: source organism: Human immunodeficiency virus 1
# HLA-A*02:06 = assay: as above; settings: source organism: Human immunodeficiency virus 1
# HLA-B*18:01 = assay: as above; settings: source organism: Human immunodeficiency virus 1
# HLA-A*26:02 = assay: as above; settings: source organism: Human immunodeficiency virus 1
# HLA-B*15:17 = assay: as above; settings: source organism: Human immunodeficiency virus 1
# HLA-C*15:02 = assay: IEDB peptide-MHC binding, purified MHC/direct/fluorescence; filed as Kd, often an IC50 or EC50 that approximates it; ≥ and ≤ were set here for values at or beyond the usual limits of such assays; settings: source organism: Mycobacterium tuberculosis H37Ra
# HLA-B*07:02 = assay: IEDB peptide-MHC binding, purified MHC/competitive/fluorescence; filed as Kd, often an IC50 or EC50 that approximates it; ≥ and ≤ were set here for values at or beyond the usual limits of such assays; settings: source organism: Influenza A virus (A/duck/Bavaria/1/1977(H1N1))
# HLA-C*05:01 = assay: IEDB peptide-MHC binding, purified MHC/direct/fluorescence; filed as Kd, often an IC50 or EC50 that approximates it; ≥ and ≤ were set here for values at or beyond the usual limits of such assays; settings: source organism: Influenza A virus (A/duck/Bavaria/1/1977(H1N1))
# [5] = source organism: Zaire ebolavirus
# [6] = source organism: Entamoeba histolytica HM-1:IMSS
# [7] = source organism: Yellow fever virus
# [8] = source organism: Escherichia coli O139:H28 str. E24377A
# [9] = source organism: Human immunodeficiency virus 1
# [10] = source organism: Mycobacterium tuberculosis H37Ra
sequence,measurement,setting,value
ELYPGDSAH,Kd,HLA-B*15:02; source organism: Clostridium botulinum A str. ATCC 3502,615 nM
FRYEFTAPF,Kd,HLA-B*51:01,≥ 20000 nM
same,Kd,HLA-B*35:01; [5],952 nM
same,Kd,HLA-B*46:01,≥ 20000 nM
same,Kd,HLA-B*27:05,724 nM
same,Kd,HLA-A*02:01,≥ 20000 nM
same,Kd,HLA-B*57:01; [5],≥ 20000 nM
same,Kd,HLA-A*26:01,≥ 20000 nM
same,Kd,HLA-A*69:01,≥ 20000 nM
same,Kd,HLA-B*39:01,0.7 nM
same,Kd,HLA-A*02:12,≥ 20000 nM
same,Kd,HLA-A*02:16,≥ 20000 nM
same,Kd,HLA-A*02:19,≥ 20000 nM
same,Kd,HLA-A*02:03 [1],≥ 20000 nM
same,Kd,HLA-A*68:02,≥ 20000 nM
same,Kd,HLA-C*14:02; [5],209 nM
same,Kd,HLA-A*03:01 [2],≥ 20000 nM
same,Kd,HLA-B*08:01; [5],6570 nM
KYNSHHFTF,Kd,HLA-A*24:02,≤ 0.1 nM
same,Kd,HLA-C*07:02; [6],2 nM
same,Kd,HLA-C*14:02; [6],80 nM
TQHFGWHAF,Kd,HLA-B*15:02; source organism: Vibrio antiquarius,21.4 nM
ILLFPLPSF,Kd,HLA-B*15:02; [6],2060 nM
VAIDRPAEV,Kd,HLA-C*12:03; [7],≤ 1 nM
same,Kd,HLA-C*03:03; [7],2 nM
IMYNYPAML,Kd,HLA-C*03:03; source organism: Mycobacterium leprae,45 nM
same,Kd,HLA-B*08:01; source organism: Mycobacterium tuberculosis,2680 nM
KHYMLKHL,IC50,HLA-B*14:02,≥ 20000 nM
LANWCLLNY,Kd,HLA-B*35:01; [8],4.6 nM
same,Kd,HLA-B*58:01,104 nM
same,Kd,HLA-A*03:01 [3],≥ 20000 nM
same,Kd,HLA-B*15:01; [8],2380 nM
same,Kd,HLA-A*01:01; [8],1670 nM
KSLFNTIAVLY,Kd,HLA-B*35:01; [9],1010 nM
same,Kd,HLA-A*02:03 [4],566 nM
same,Kd,HLA-A*11:01,1920 nM
same,Kd,HLA-A*30:01,1350 nM
same,Kd,HLA-B*57:01; [9],190 nM
same,Kd,HLA-A*02:06,206 nM
same,Kd,HLA-B*18:01,260 nM
same,Kd,HLA-A*26:02,1110 nM
same,Kd,HLA-B*15:01; [9],1200 nM
same,Kd,HLA-A*01:01; [9],2130 nM
same,Kd,HLA-B*15:17,21.3 nM
KAAGAAVAL,Kd,HLA-C*15:02,1770 nM
same,Kd,HLA-C*12:03; [10],76 nM
same,Kd,HLA-C*03:03; [10],2 nM
LPFQNIHPI,Kd,HLA-B*07:02,104 nM
same,Kd,HLA-C*07:02; source organism: Influenza A virus (A/duck/Bavaria/1/1977(H1N1)),≥ 20000 nM
same,Kd,HLA-C*05:01,≥ 20000 nM
NLYGWHLPL,Kd,HLA-B*15:02; source organism: Escherichia coli APEC O1,9.5 nM
